Experimental data: patent US11213597B2, “Kinin-based theranostic probes for solid cancers and uses thereof” (SOCIETE DE COMMERCIALISATION DES PRODUITS DE LA RECHERCHE …, priority 2015, dated 2022)
[ ]: non-standard residue; d: D form. The star is where a group is joined. NOTA = O=C(O)CN1CCN(CC(=O)O)CCN(CC(=O)*)CC1; Oic = O=C(O)[C@@H]1C[C@@H]2CCCC[C@@H]2N1; d2Nal = N[C@H](Cc1ccc2ccccc2c1)C(=O)O; αMeF = C[C@](N)(Cc1ccccc1)C(=O)O; Orn = NCCC[C@H](N)C(=O)O; βAla = NCCC(=O)O

Assays:
[1] = rat
Method: For in vivo stability studies in normal healthy rats and mice, peptide was reconstituted in PBS and 20-30 MBq (500-800 μCi; 100 μL) were injected through the tail vein to isoflurane anesthetized animals. At different times post-injection, blood and urine were collected, centrifuged and followed by a protein precipitation with acetonitrile. Samples were analyzed by UPLC using a C-18 column and a radio-detector. Analysis and retention times were compared to the original radiolabeled peptide to monitor peptide cleavage.

[2] = system: F98 GBM; test: small animal PET imaging, Fischer/F98 malignant glioma model; assay type: in vivo, rat; settings: intravenous, F98 GBM-bearing rats
Method: The F98 GBM cell line (#CRL-2397) was purchased from American Type Culture Collection (ATCC). Cells were cultured as monolayers in Dulbecco's modified Eagle medium (DMEM) supplemented with 10% fetal bovine serum (FBS) and 1% penicillin-streptomycin mixture at 37° C. in a humidified 5% CO2/95% air incubator. The procedure of F98 glioma cell implantation was similar to that used in our previous studies (Côté et al., 2010, Neuropeptides, 44:177-185). […] All tumor transplantations were successful as determined by histology and/or MRI.
PET scans were performed using a LabPET8 (Gamma Medica Inc.) small animal scanner with an axial field of view of 8 cm. […] PET scans were assessed 1 h and 20 h post-injections. […] Regions of interest were traced for tumor, normal brain, heart, liver, kidney, and muscle, and the activity in each organ was measured and reported to the injected dose for percentages calculation. […] In vivo testing of the novel kinin PET radiotracers was also assessed in a model of tumor metastasis induced by the intracardiac injection of 4T1/luc (bioluminescent) mouse breast cancer cells under ultrasound guidance.

[3] = system: F98 GBM; test: ex vivo biodistribution in F98 GBM-bearing rats; parameters: species or system rat
Method: Ex vivo biodistribution studies were performed by injecting 74 MBq (2 mCi/rat; 100 μL of ^64Cu-NOTA-βAla-Orn^1-Arg^2-Oic^3-Pro^4-Gly^5-(αMe)Phe^6-Ser^7-DβNal^8-Ile^9-OH (SEQ ID NO: 6) to isoflurane-anesthetized normal (non-implanted) or F98 bearing rats via the caudal vein. After 1 and 20 h post-injection, the animals were euthanized by CO2 inhalation. Organs of interest were further collected, weighed, and measured in a gamma-counter (Cobra II auto-gamma counter, Packard, Minn.). The results were expressed as percentage of the injected dose per gram of tissue (% ID/g). Specificity of brain tumor uptake of B1R radiotracers was determined by pre-administration of 1 mg/kg of R954 peptide (5 min prior the injection of the radiolabelled peptide) and using sham-operated contralaterals. Animals bearing B1R target knockdowns were also employed to further support specificity of brain tumor uptake. Experiments were realized with a minimum of 3 rats per group.

^64Cu-NOTA-βAla-Orn^1-Arg^2-Oic^3-Pro^4-Gly^5-(αMe)Phe^6-Ser^7-DβNal^8-Ile^9-OH ({NOTA}-[βAla][Orn]R[Oic]PG[αMeF]S[d2Nal]I-OH; also: 64Cu complexed by NOTA)
in vivo stability [1]: no degradation sign
elimination (pharmacokinetics) ([1]; in vivo): largely eliminated by the kidneys in urine as intact form
detection of brain tumors by μPET [2]: properly detected relatively small brain tumors
brain tumor uptake, ex vivo biodistribution [3]: significant amount of brain tumor uptake
